In this test the target is His6-tagged YAP, purified (immobilised in BLI) (UniProt P46937 1-504). Nature of the test: BLI. For orientation: Biolayer interferometry detects binding as a change in optical thickness at a sensor tip.
Sequence of His6-tagged YAP, purified (immobilised in BLI) (P46937 whole entry): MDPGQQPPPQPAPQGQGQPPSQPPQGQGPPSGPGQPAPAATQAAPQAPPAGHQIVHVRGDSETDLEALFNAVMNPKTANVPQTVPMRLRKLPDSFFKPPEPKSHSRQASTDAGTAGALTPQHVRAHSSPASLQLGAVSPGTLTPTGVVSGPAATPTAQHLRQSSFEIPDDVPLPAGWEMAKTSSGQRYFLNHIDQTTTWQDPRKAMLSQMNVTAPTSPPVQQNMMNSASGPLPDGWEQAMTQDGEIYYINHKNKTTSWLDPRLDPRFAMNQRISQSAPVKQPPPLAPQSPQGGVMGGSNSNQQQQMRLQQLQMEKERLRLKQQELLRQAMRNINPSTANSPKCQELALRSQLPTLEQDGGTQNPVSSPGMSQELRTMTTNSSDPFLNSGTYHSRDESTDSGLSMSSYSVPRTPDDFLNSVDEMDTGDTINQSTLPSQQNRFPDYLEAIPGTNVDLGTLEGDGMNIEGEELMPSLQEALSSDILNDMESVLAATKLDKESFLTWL

B1: recombinant TWF2, purified (BLI analyte) (natural protein)
chain: MAHQTGIHATEELKEFFAKARAGSVRLIKVVIEDEQLVLGASQEPVGRWDQDYDRAVLPLLDAQQPCYLLYRLDSQNAQGFEWLFLAWSPDNSPVRLKMLYAATRATVKKEFGGGHIKDELFGTVKDDLSFAGYQKHLSSCAAPAPLTSAERELQQIRINEVKTEISVESKHQTLQGLAFPLQPEAQRALQQLKQKMVNYIQMKLDLERETIELVHTEPTDVAQLPSRVPRDAARYHFFLYKHTHEGDPLESVVFIYSMPGYKCSIKERMLYSSCKSRLLDSVEQDFHLEIAKKIEIGDGAELTAEFLYDEVHPKQHAFKQAFAKPKGPGGKRGHKRLIRGPGENGDDS
As to B1, binding was put at a Kd of 7.9 µM.

What is called Kd is the equilibrium constant for the complex coming apart.

For the origin of these results see article PMC12667553 (2025).
